Measured values as given in the supplement of paper PMC10126150.
± gives the standard deviation of the averaged measurements.

System: ATP
Assay: switch fluorescence ratio, 500 uM ATP over buffer (Cy3 cluster intensity, sum of 5 cycles each) (fold (ratio)); higher = stronger signal-on switching upon ATP binding; sequences stand for … in TCGTCGGCAGCGTCAGATGTGTATAAGAGACAGTTTTTTTTTTTTTTTTTTTTTTTTT…TC
Settings: aptamer strand: ATP DNA aptamer (quencher-CACCTGGGGGAGTATTGCGGAGGAAGG + anchor), 100 nM annealed; ATP concentration: 500 uM
How it was run: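 Switching-strand clusters labelled with Cy3 on a modified Illumina MiSeq flow-cell were annealed to 100 nM quencher-labelled ATP aptamer, imaged in selection buffer, and re-imaged after 15 min with 500 uM ATP at 22 °C. This was done over five cycles with NaOH stripping and re-annealing in between. The fluorescence ratio is summed target-cycle over summed buffer-cycle Cy3 intensity per cluster, averaged per switch-domain sequence, excluding clusters outside 100-1000 RFU.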
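Also: ATP exposure 15 min at 22 °C before imaging.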

Sequence | switch fluorescence ratio
TGGTTGGGGG | 0.995 ± 0.024
TGGTTGGTGG | 1.05 ± 0.09
TGGTTGTCCG | 1.06 ± 0.059
TGGTTTAGGC | 0.997 ± 0.011
TGGTTTCCCG | 0.975 ± 0.044
TGGTTTGTTA | 1.02 ± 0.022
TGGTTTGTTG | 0.9686 ± 0.0064
TGGTTTTCAG | 0.997 ± 0.015
TGTAAAAAGG | 0.98 ± 0.025
TGTAAAATGT | 0.998 ± 0.029
TGTAAACCGC | 1.2 ± 0.16
TGTAAATGTT | 1.03 ± 0.04
TGTAACTGAG | 1.0374 ± 3e-05
TGTAAGGACT | 1.01 ± 0.038
TGTAAGGGGG | 0.989 ± 0.039
TGTAAGGGTT | 0.994 ± 0.027
TGTAATAGGG | 0.979 ± 0.013
TGTAATCGTT | 0.964 ± 0.07
TGTAATTTGT | 1 ± 0.027
TGTACGATGC | 1.12 ± 0.014
TGTACGGATT | 1.0016 ± 0.00058
TGTACGGGGG | 0.949 ± 0.021
TGTACTGGGC | 1.06 ± 0.049
TGTAGATTGT | 1.01 ± 0.049
TGTAGCATGT | 2.08 ± 1.3

Sequence | switch fluorescence ratio
TGTAGGGACG | 0.957 ± 0.12
TGTAGGGGGT | 1.01 ± 0.041
TGTAGTAAGT | 1.01 ± 0.06
TGTAGTACTG | 1.02 ± 0.043
TGTAGTCTGG | 0.969 ± 0.024
TGTAGTGAA | 1.1 ± 0.16
TGTATATAGG | 0.955 ± 0.021
TGTATCGGGT | 0.979 ± 0.035
TGTATGC | 0.958 ± 0.051
TGTATGTGGG | 0.999 ± 0.028
TGTATGTGGT | 1 ± 0.048
TGTATTTTGG | 0.984 ± 0.029
TGTCACAGGG | 1.063 ± 0.007
TGTCACCAGT | 1.02 ± 0.016
TGTCACTGTT | 0.965 ± 0.022
TGTCAGAAGC | 0.994 ± 0.012
TGTCCGGTTT | 1.25 ± 0.36
TGTCGAGGGC | 0.965 ± 0.021
TGTCGCGTAT | 0.992 ± 0.013
TGTCGGAGAT | 0.987 ± 0.018
TGTCGGATTA | 0.979 ± 0.011
TGTCGGATTT | 1.13 ± 0.24
TGTCGGGCAG | 0.9843 ± 0.0038
TGTCGGTAAT | 1.03 ± 0.022
TGTCGTAATT | 1 ± 0.011

Sequence | switch fluorescence ratio
TGTCGTGGGA | 1.01 ± 0.038
TGTCTATGGG | 0.988 ± 0.023
TGTCTCTACG | 1.021 ± 0.01
TGTCTGGGGT | 1 ± 0.019
TGTCTTTTGA | 1.003 ± 0.0059
TGTGAACAGT | 0.975 ± 0.044
TGTGAACGTA | 1.01 ± 0.052
TGTGAAGAAA | 0.977 ± 0.06
TGTGAATAGG | 1.02 ± 0.065
TGTGACTGCC | 1.04 ± 0.055
TGTGAGCTTT | 0.975 ± 0.03
TGTGAGGGA | 1 ± 0.029
TGTGAGTCGG | 0.948 ± 0.03
TGTGATAATG | 0.9831 ± 0.0017
TGTGATGTCA | 1.01 ± 0.016
TGTGATTCTA | 0.972 ± 0.017
TGTGATTTAC | 1.05 ± 0.011
TGTGCCGCGC | 1.06 ± 0.07
TGTGCCTGCT | 1 ± 0.043
TGTGCTAGGG | 0.98 ± 0.028
TGTGCTATGG | 1.01 ± 0.02
TGTGCTATGT | 0.995 ± 0.028
TGTGGAACGT | 0.9813 ± 0.0082
TGTGGAAGGA | 0.9862 ± 0.0039
TGTGGAAGGG | 0.981 ± 0.019

Sequence | switch fluorescence ratio
TGTGGAGAAG | 0.974 ± 0.025
TGTGGCACTT | 0.998 ± 0.022
TGTGGCTTCC | 2.25 ± 0.099
TGTGGGAGAG | 0.973 ± 0.038
TGTGGGAGGC | 1.04 ± 0.018
TGTGGGGAGT | 0.952 ± 0.019
TGTGGGGATA | 0.9904 ± 0.0011
TGTGGGGCAG | 0.968 ± 0.03
TGTGGGGCTT | 1.01 ± 0.035
TGTGGGGGG | 0.951 ± 0.025
TGTGGGTTTA | 0.988 ± 0.033
TGTGGTAAGG | 0.98472 ± 0.0006
TGTGGTCCAA | 0.9855 ± 0.0036
TGTGGTCGGG | 0.993 ± 0.038
TGTGGTGGCA | 1 ± 0.058
TGTGGTGGGA | 0.98 ± 0.02
TGTGGTGTGT | 1 ± 0.03
TGTGGTTACA | 0.989 ± 0.025
TGTGGTTATT | 0.991 ± 0.025
TGTGTAATTT | 0.999 ± 0.012
TGTGTCAGAC | 1.01 ± 0.03
TGTGTCAGGG | 1.01 ± 0.022
TGTGTCAGGT | 0.997 ± 0.05
TGTGTGAAGT | 1.01 ± 0.059
TGTGTGATTC | 1.3 ± 0.49
